Data on 6 substances can be found in the supplement of paper PMC5998384.

Data set [1] relates to HeLa Kyoto. Nature of the data set: solubility in G1/S (NP-40 vs SDS abundance) (log2 ratio); higher = more soluble. The settings on record: cell cycle stage: G1/S.
For data set [2], the system named is HeLa Kyoto. The experiment in a line: melting temperature (median over replicates), in situ; higher = more thermally stable.
In data set [3] the test system is HeLa Kyoto. The experiment in a line: solubility change mitosis vs G1/S (difference of NP-40 vs SDS log2 ratios) (log2 ratio difference); higher = more soluble in mitosis.
Data set [4] deals with HeLa Kyoto. The experiment in a line: thermal stability score vs G1/S (z-score of summed log2 fold changes over temperatures); higher = more thermally stable than in G1/S.
[5] abbreviates: cell cycle stage: early G1 (4.5 h after nocodazole release).
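For melting temperature (median over replicates), in situ in this document: HeLa Kyoto cells synchronized by double thymidine or nocodazole block, proteins quantified by TMT10plex mass spectrometry, three independent biological replicates.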
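For solubility change mitosis vs G1/S (difference of NP-40 vs SDS log2 ratios) in this document: synchronized HeLa Kyoto cells (double thymidine block for G1/S, nocodazole release for mitosis), protein amounts in NP-40 versus SDS lysates quantified by mass spectrometry, three biological replicates.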
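For solubility in G1/S (NP-40 vs SDS abundance) in this document: HeLa Kyoto cells arrested at G1/S by double thymidine block, proteins quantified by TMT10plex mass spectrometry in mild NP-40 versus SDS extracts, three biological replicates.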
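For thermal stability score vs G1/S (z-score of summed log2 fold changes over temperatures) in this document: synchronized HeLa Kyoto cells, proteins quantified by TMT10plex mass spectrometry, three biological replicates, mitosis taken 0.5 h after nocodazole release, G1/S directly after double thymidine block.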

Regarding “MAARVLRARGAAWAGGLLQRAAPCSLLPRLRTWTSSSNRSREDSWLKSLFVRKVDPRKDAHSNLLAKKETSNLYKLQFHNVKPECLEAYNKICQEVLPKIHEDKHYPCTLVGTWNTWYGEQDQAVHLWRYEGGYPALTEVMNKLRENKEFLEFRKARSDMLLSRKNQLLLEFSFWNEPVPRSGPNIYELRSYQLRPGTMIEWGNYWARAIRFRQDGNEAVGGFFSQIGQLYMVHHLWAYRDLQTREDIRNAAWHKHGWEELVYYTVPLIQEMESRIMIPLKTSPLQ [GBAS]”, the “solubility in G1/S (log2)” value in data set [1] came to 0.0162. The melting temperature in data set [2] (cell cycle stage: G1/S) is 53.7 °C; in data set [2] (cell cycle stage: mitosis), 53.3 °C. Besides, the “solubility change mitosis (log2)” value in data set [3] was -0.0463. Also, the thermal stability score in data set [4] (setting [5]) was -0.626; in data set [4] (cell cycle stage: mitosis), -0.959.

Regarding NIPBL, in data set [1], the “solubility in G1/S (log2)” value is -0.446. Also, the melting temperature in data set [2] (cell cycle stage: G1/S) was 47.3 °C; in data set [2] (cell cycle stage: mitosis), 49.3 °C. The “solubility change mitosis (log2)” value in data set [3] stood at 0.263. Besides, the thermal stability score in data set [4] (setting [5]) amounted to 2.24; in data set [4] (cell cycle stage: mitosis), 6.45.

With “METESGNQEKVMEEESTEKKKEVEKKKRSRVKQVLADIAKQVDFWFGDANLHKDRFLREQIEKSRDGYVDISLLVSFNKMKKLTTDGKLIARALRSSAVVELDLEGTRIRRKKPLGERPKDEDERTVYVELLPKNVNHSWIERVFGKCGNVVYISIPHYKSTGDPKGFAFVEFETKEQAAKAIEFLNNPPEEAPRKPGIFPKTVKNKPIPALRVVEEKKKKKKKKGRMKKEDNIQAKEENMDTSNTSISKMKRSRPTSEGSDIESTEPQKQCSKKKKKRDRVEASSLPEVRTGKRKRSSSEDAESLAPRSKVKKIIQKDIIKEASEASKENRDIEISTEEEKDTGDLKDSSLLKTKRKHKKKHKERHKMGEEVIPLRVLSKSEWMDLKKEYLALQKASMASLKKTISQIKSESEMETDSGVPQNTGMKNEKTANREECRTQEKVNATGPQFVSGVIVKIISTEPLPGRKQVRDTLAAISEVLYVDLLEGDTECHARFKTPEDAQAVINAYTEINKKHCWKLEILSGDHEQRYWQKILVDRQAKLNQPREKKRGTEKLITKAEKIRLAKTQQASKHIRFSEYD [LARP7]”, the “solubility in G1/S (log2)” value in data set [1] was -0.53. Further, the melting temperature in data set [2] (cell cycle stage: G1/S) stood at 48.8 °C; in data set [2] (cell cycle stage: mitosis), 50.1 °C. In addition, the “solubility change mitosis (log2)” value in data set [3] came to 0.194. In addition, the thermal stability score in data set [4] (setting [5]) was determined as 0.456; in data set [4] (cell cycle stage: mitosis), 1.1.

As for KDM5C, the “solubility in G1/S (log2)” value in data set [1] is -0.0935. For the same substance, the melting temperature was found to be 49.3 °C in data set [2] (cell cycle stage: G1/S) and 50 °C in data set [2] (cell cycle stage: mitosis). Moreover, the “solubility change mitosis (log2)” value in data set [3] is -0.075. For the same substance, the values for the thermal stability score in data set [4] (setting [5]) and in data set [4] (cell cycle stage: mitosis) were 0.484 and 0.572, respectively.

Regarding “MMPTPVILLKEGTDSSQGIPQLVSNISACQVIAEAVRTTLGPRGMDKLIVDGRGKATISNDGATILKLLDVVHPAAKTLVDIAKSQDAEVGDGTTSVTLLAAEFLKQVKPYVEEGLHPQIIIRAFRTATQLAVNKIKEIAVTVKKADKVEQRKLLEKCAMTALSSKLISQQKAFFAKMVVDAVMMLDDLLQLKMIGIKKVQGGALEDSQLVAGVAFKKTFSYAGFEMQPKKYHNPKIALLNVELELKAEKDNAEIRVHTVEDYQAIVDAEWNILYDKLEKIHHSGAKVVLSKLPIGDVATQYFADRDMFCAGRVPEEDLKRTMMACGGSIQTSVNALSADVLGRCQVFEETQIGGERYNFFTGCPKAKTCTFILRGGAEQFMEETERSLHDAIMIVRRAIKNDSVVAGGGAIEMELSKYLRDYSRTIPGKQQLLIGAYAKALEIIPRQLCDNAGFDATNILNKLRARHAQGGTWYGVDINNEDIADNFEAFVWEPAMVRINALTAASEAACLIVSVDETIKNPRSTVDAPTAAGRGRGRGRPH [CCT7]”, in data set [1], the “solubility in G1/S (log2)” value came out at 0.162. The melting temperature in data set [2] (cell cycle stage: G1/S) stood at 54.1 °C; in data set [2] (cell cycle stage: mitosis), 54.2 °C. Moreover, the “solubility change mitosis (log2)” value in data set [3] was -0.0678. Besides, the thermal stability score is -0.684 in data set [4] (setting [5]) and -1.22 in data set [4] (cell cycle stage: mitosis).

For the substance “MLGGSLGSRLLRGVGGSHGRFGARGVREGGAAMAAGESMAQRMVWVDLEMTGLDIEKDQIIEMACLITDSDLNILAEGPNLIIKQPDELLDSMSDWCKEHHGKSGLTKAVKESTITLQQAEYEFLSFVRQQTPPGLCPLAGNSVHEDKKFLDKYMPQFMKHLHYRIIDVSTVKELCRRWYPEEYEFAPKKAASHRALDDISESIKELQFYRNNIFKKKIDEKKRKIIENGENEKTVS [REXO2]”, the “solubility in G1/S (log2)” value in data set [1] was found to be 0.239. Also, the melting temperature amounted to 56.8 °C in data set [2] (cell cycle stage: G1/S) and 56.5 °C in data set [2] (cell cycle stage: mitosis). In data set [3], the “solubility change mitosis (log2)” value worked out at 0.144. Moreover, the thermal stability score in data set [4] (setting [5]) was -2.25; in data set [4] (cell cycle stage: mitosis), -3.59.
